Results on two molecules are retold here after patent US20200040401A1 (KAOHSIUNG MEDICAL UNIVERSITY, published 2020).

Test [1] has as its target phosphatidylinositol 3,4,5-trisphosphate Rac exchange factor 2 (PREX2) (UniProt Q70Z35 1-1606, limits assumed). Kind of test: cell-based or functional assay.
For test [2], the target named is endogenous PREX2 of mouse liver (mouse, UniProt Q3LAC4 1-1598, limits assumed). The test is described as follows: reciprocal co-IP, mouse liver lysates (FIG. 1B). The source says:
FIG. 1B depicts that mouse liver lysates were used for reciprocal co-IP assay followed by IB analysis.
Please refer to FIG. 1A to FIG. 1G, which illustrates that GNMT interacts with PREX2 and negatively regulates PREX2-mediated AKT signaling. As the data in FIG. 1A illustrated, GNMT interacted with endogenous PREX2. […] To map the binding domain, different Myc-tagged PREX2 truncated mutants were co-expressed with Flag-tagged GNMT in HEK293T cells.

endogenous PREX2 of mouse liver, sequence (Q3LAC4 whole entry): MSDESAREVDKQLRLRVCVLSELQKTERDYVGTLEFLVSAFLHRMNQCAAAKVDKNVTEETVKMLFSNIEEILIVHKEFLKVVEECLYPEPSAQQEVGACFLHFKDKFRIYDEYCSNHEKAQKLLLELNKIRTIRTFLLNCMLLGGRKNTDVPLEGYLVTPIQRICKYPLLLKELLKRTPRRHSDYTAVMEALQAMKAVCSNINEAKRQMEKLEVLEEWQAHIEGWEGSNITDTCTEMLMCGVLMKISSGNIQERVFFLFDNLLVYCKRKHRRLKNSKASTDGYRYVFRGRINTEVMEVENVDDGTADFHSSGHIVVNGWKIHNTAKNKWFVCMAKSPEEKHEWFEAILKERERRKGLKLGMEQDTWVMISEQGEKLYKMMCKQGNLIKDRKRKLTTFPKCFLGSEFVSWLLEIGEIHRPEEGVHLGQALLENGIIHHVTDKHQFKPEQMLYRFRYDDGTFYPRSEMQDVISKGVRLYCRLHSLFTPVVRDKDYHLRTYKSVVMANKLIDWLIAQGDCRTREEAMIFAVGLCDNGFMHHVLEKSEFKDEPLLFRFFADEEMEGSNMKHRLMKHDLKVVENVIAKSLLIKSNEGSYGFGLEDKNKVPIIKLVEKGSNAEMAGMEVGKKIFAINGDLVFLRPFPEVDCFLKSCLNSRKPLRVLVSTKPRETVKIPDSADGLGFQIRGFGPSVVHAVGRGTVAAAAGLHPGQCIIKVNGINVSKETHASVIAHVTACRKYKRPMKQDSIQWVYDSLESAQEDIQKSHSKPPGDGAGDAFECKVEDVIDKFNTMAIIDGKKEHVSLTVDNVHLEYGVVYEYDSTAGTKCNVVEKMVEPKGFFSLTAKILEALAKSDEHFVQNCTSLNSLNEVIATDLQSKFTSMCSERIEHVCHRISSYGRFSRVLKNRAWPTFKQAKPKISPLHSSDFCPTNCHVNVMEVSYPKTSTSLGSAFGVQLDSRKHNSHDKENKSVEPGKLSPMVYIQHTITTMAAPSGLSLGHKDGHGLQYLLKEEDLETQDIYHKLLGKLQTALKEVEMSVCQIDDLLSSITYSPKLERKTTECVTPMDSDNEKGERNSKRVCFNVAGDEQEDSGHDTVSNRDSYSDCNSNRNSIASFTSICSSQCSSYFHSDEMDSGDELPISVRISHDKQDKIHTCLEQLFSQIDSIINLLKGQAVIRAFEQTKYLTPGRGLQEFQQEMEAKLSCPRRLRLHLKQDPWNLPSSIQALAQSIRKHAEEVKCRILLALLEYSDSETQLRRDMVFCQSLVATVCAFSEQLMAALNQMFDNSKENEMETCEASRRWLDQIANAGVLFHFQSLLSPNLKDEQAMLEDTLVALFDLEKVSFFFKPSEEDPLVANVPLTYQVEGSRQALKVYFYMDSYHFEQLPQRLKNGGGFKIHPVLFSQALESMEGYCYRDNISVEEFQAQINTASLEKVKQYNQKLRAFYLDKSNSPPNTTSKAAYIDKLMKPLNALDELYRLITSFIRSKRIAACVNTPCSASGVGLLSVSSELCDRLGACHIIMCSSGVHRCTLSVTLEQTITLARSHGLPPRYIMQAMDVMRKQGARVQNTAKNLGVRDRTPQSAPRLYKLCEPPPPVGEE
phosphatidylinositol 3,4,5-trisphosphate Rac exchange factor 2 (PREX2), sequence (Q70Z35 whole entry): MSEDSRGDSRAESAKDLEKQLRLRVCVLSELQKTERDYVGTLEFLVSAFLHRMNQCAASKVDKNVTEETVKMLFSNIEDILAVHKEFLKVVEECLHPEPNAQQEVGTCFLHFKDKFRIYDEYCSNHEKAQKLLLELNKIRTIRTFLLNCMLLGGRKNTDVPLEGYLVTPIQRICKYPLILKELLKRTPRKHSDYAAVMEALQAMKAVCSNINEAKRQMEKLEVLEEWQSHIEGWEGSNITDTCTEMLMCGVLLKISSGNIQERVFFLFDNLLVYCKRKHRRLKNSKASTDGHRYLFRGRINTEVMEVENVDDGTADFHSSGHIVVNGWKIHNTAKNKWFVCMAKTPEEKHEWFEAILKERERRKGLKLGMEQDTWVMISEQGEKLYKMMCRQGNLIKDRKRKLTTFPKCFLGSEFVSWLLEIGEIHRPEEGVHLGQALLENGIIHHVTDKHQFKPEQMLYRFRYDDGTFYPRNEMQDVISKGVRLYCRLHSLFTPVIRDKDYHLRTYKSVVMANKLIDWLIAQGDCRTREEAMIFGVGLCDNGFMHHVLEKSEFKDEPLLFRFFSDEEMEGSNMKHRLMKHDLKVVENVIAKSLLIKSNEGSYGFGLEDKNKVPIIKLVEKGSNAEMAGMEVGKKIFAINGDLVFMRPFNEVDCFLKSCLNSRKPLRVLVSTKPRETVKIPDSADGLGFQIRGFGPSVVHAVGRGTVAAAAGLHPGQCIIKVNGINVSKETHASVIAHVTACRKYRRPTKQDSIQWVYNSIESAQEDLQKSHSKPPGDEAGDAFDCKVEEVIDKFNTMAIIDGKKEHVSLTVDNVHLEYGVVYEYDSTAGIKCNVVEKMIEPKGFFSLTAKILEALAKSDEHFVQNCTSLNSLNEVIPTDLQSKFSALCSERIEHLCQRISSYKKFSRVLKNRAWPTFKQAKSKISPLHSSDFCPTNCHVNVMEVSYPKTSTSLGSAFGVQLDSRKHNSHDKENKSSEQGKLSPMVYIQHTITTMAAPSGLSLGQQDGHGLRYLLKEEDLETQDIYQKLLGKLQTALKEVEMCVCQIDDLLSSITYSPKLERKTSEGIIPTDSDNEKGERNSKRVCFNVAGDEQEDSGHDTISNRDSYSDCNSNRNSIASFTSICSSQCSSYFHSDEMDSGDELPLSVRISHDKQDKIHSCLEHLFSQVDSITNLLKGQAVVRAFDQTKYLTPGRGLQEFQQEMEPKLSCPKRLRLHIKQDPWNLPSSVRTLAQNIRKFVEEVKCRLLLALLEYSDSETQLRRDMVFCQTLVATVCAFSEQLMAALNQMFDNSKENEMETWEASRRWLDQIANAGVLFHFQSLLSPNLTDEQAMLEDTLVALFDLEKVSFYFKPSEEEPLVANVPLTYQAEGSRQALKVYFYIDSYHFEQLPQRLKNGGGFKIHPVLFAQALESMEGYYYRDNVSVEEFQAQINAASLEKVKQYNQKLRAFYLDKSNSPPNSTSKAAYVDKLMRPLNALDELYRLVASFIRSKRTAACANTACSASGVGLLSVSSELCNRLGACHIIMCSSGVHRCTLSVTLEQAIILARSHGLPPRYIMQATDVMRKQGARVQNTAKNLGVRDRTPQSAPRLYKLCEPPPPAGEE

B1: glycine-N-methyltransferase (GNMT) (enzyme)
chain: VDSVYRTRSLGVAAEGLPDQYADGEAARVWQLYIGDTRSRTAEYKAWLLGLLRQHGCQRVLDVACGTGVDSIMLVEEGFSVTSVDASDKMLKYALKERWNRRHEPAFDKWVIEEANWMTLDKDVPQSAEGGFDAVICLGNSFAHLPDCKGDQSEHRLALKNIASMVRAGGLLVIDHRNYDHILSTGCAPPGKNIYYKSDLTKDVTTSVLIVNNKAHMVTLDYTVQVPGAGQDGSPGLSKFRLSYYPHCLASFTELLQAAFGGKCQHSVLGDFKPYKPGQTYIPCYFIHVLKRTD
In the case of B1, the “PREX2 half-life (pulse-chase, 35S-Methionine/Cysteine, Huh7 cells)” value in test [1] is 9.4 h.

B2: endogenous GNMT of mouse liver (enzyme, UniProt Q9QXF8 2-293, looked up)
chain: VDSVYRTRSLGVAAEGLPDQYADGEAARVWQLYIGDTRSRTAEYKAWLLGLLRQHGCHRVLDVACGTGVDSIMLVEEGFSVMSVDASDKMLKYALKERWNRRKEPSFDNWVIEEANWLTLDKDVLSGDGFDAVICLGNSFAHLPDCKGDQSEHRLALKNIASMVRPGGLLVIDHRNYDYILSTGCAPPGKNIYYKSDLTKDITTSVLTVNNKAHMVTLDYTVQVPGTGRDGSPGFSKFRLSYYPHCLASFTELVRAAFGGRCQHSVLGDFKPYKPGQAYVPCYFIHVLKKTD
On to B2, for which, in test [2], the binding result is on record as “binds”.
